{"source": "patent US20250367292A1", "about": "“HLA SUPERAGONISTS AND USES THEREOF” (UNIVERSITY HEALTH NETWORK, priority 2021, published 2025)", "biological_target": "T1, HLA-A*24:02-restricted peptides (Homo sapiens, UniProt P04439, D101N/D140Y/D185E/E176V/E190D/F33S/G103R/G107R/I119L/I121M/I306V/K335N/L105A/L180Q/L300P/N151K/N90K/Q86E/Q94H/R106L/R138H/R89G/T104I/T345S/V100E/W191G/Y123F)", "T1 construct": "T2 cells transduced with the full-length HLA-A*24:02 genes tagged with ΔNGFR; Furin-SGSG-F2A-linked truncated NGFR (ΔNGFR) co-expression marker (C); expressed in transfected cells; host or cells: T2 cells, retrovirally transduced (pMX)", "experiment": "Peptide-HLA binding assay (biotinylated peptide, SA-PE, flow cytometry)", "format": "cell-based", "details": "irrelevant control peptides", "description": "T2-A24 (Wild-type) cells, or T2-A24 cells with a single amino acid substitution at position 81, 82, or 83 were pulsed with 50 μg/ml of biotinylated peptide overnight at 37° C. After intensive washing, the cells were stained by PE-conjugated streptavidin (SA-PE), washed and fluorescence intensity was measured by flow cytometry analysis."}
{"substance": "HLA-A*24:02 (A81L): HLA-A*24:02 with an Ala to Leu substitution at position 81 (A81L), corresponding to SEQ ID NO: 1", "values": [{"measurement": "peptide presentation by T2 cells towards non-HLA-A*24:02 restricted peptides", "value": "no increase"}]}
